{
  "source": "the RNAGym collection of RNA variant scans (doi:10.7554/elife.80360)",
  "parents": {"B1": {"name": "CPEB3 Ribozyme (parent)", "chain": "GGGGGCCACAGCAGAAGCGUUCACGUCGCGGCCCCUGUCAGAUUCUGGUGAAUCUGCGAAUUCUGCUGU"}},
  "data": [
    {"variants_of": "B1", "assay": "self-cleavage, relative activity (ratio to wild type); higher = more cleavage; co-transcriptional", "values": [
      {"variant": "GGGGGCCACAGCAGAAGCGUUCACGUGGCGGCCCCUGUCAGAUUCUGGUGAAUCUGCGAAUUAUGCUGU", "note": "[C27G C63A]", "self-cleavage": 0.197},
      {"variant": "GGGGGCCACAGCAGAAGCGUUCACGUUGCGGCCCCUGUCAGAUUCUGGUGAAUCUGUGAAUUCUGCUGU", "note": "[C27U C57U]", "self-cleavage": 0.204},
      {"variant": "GGGGGCCACAGCAGAAGCGUUCACGUUGCGGCCCCUGUUAGAUUCUGGUGAAUCUGCGAAUUCUGCUGU", "note": "[C27U C39U]", "self-cleavage": 0.254},
      {"variant": "GGGGGCCACAGCAGAAGCGUUCACGUUGCGGCCCGUGUCAGAUUCUGGUGAAUCUGCGAAUUCUGCUGU", "note": "[C27U C35G]", "self-cleavage": 0.14},
      {"variant": "GGGGGCCACAGCAGAAGCGUUCACGUUGCGCCCCCUGUCAGAUUCUGGUGAAUCUGCGAAUUCUGCUGU", "note": "[C27U G31C]", "self-cleavage": 0.143},
      {"variant": "GGGGGCCACAGCAGAAGCGUUCACGUGGCGGCCCCUGUCAGAUUCUUGUGAAUCUGCGAAUUCUGCUGU", "note": "[C27G G47U]", "self-cleavage": 0.17},
      {"variant": "GGGGGCCACAGCAGAAGCGUUCACGUGGCGGCCCCUGUCAGAUUCUAGUGAAUCUGCGAAUUCUGCUGU", "note": "[C27G G47A]", "self-cleavage": 0.265},
      {"variant": "GGGGGCCACAGCAGAAGCGUUCACGUGGCGGCCCCUGUCAGAUUCUGGUGAAUAUGCGAAUUCUGCUGU", "note": "[C27G C54A]", "self-cleavage": 0.187},
      {"variant": "GGGGGCCACAGCAGAAGCGUUCACGUGGCGGCCCCUGUCAGAUUCUGGUGAAUCUGUGAAUUCUGCUGU", "note": "[C27G C57U]", "self-cleavage": 0.189},
      {"variant": "GGGGGCCACAGCAGAAGCGUUCACGUGGCGGCCCCUGUCAGAUUCUGGUGAAUCUGCAAAUUCUGCUGU", "note": "[C27G G58A]", "self-cleavage": 0.16},
      {"variant": "GGGGGCCACAGCAGAAGCGUUCACGUGGCGGCCCCUGUAAGAUUCUGGUGAAUCUGCGAAUUCUGCUGU", "note": "[C27G C39A]", "self-cleavage": 0.166},
      {"variant": "GGGGGCCACAGCAGAAGCGUUCACGUGGCGGCCCCUGUGAGAUUCUGGUGAAUCUGCGAAUUCUGCUGU", "note": "[C27G C39G]", "self-cleavage": 0.263},
      {"variant": "GGGGGCCACAGCAGAAGCGUUCACGUAGCGGCCCCUGUCAGAUUCUGGUGAAUCUGCGAAUUCCGCUGU", "note": "[C27A U64C]", "self-cleavage": 0.343},
      {"variant": "GGGGGCCACAGCAGAAGCGUUCACGUGGCGGCCCCUGUCAGUUUCUGGUGAAUCUGCGAAUUCUGCUGU", "note": "[C27G A42U]", "self-cleavage": 0.136},
      {"variant": "GGGGGCCACAGCAGAAGCGUUCACGUGGCGGCCCCGGUCAGAUUCUGGUGAAUCUGCGAAUUCUGCUGU", "note": "[C27G U36G]", "self-cleavage": 0.14},
      {"variant": "GGGGGCCACAGCAGAAGCGUUCACGUGGCGGCCCCCGUCAGAUUCUGGUGAAUCUGCGAAUUCUGCUGU", "note": "[C27G U36C]", "self-cleavage": 0.168},
      {"variant": "GGGGGCCACAGCAGAAGCGUUCACGUGGCGGCCCCUGUCAGAUUCUGGUGAAUCUGCGAAGUCUGCUGU", "note": "[C27G U61G]", "self-cleavage": 0.172},
      {"variant": "GGGGGCCACAGCAGAAGCGUUCACGUGGCGGCCCCUGUCAGAUUCUGGUGAAUCUGCGAACUCUGCUGU", "note": "[C27G U61C]", "self-cleavage": 0.169},
      {"variant": "GGGGGCCACAGCAGAAGCGUUCACGUGGCGGCCCCUGUCAGAUUCUGUUGAAUCUGCGAAUUCUGCUGU", "note": "[C27G G48U]", "self-cleavage": 0.163},
      {"variant": "GGGGGCCACAGCAGAAGCGUUCACGUGGCGGCCCCUGUCAGAUUCUGCUGAAUCUGCGAAUUCUGCUGU", "note": "[C27G G48C]", "self-cleavage": 0.241},
      {"variant": "GGGGGCCACAGCAGAAGCGUUCACGUUGCGGCCCCUGUCAGAUUCUAGUGAAUCUGCGAAUUCUGCUGU", "note": "[C27U G47A]", "self-cleavage": 0.459},
      {"variant": "GGGGGCCACAGCAGAAGCGUUCACGUGGCGGCCCCUGUCAGAUUCUGGUGAAUCUGCGACUUCUGCUGU", "note": "[C27G A60C]", "self-cleavage": 0.238},
      {"variant": "GGGGGCCACAGCAGAAGCGUUCACGUGGCGGCCCCUAUCAGAUUCUGGUGAAUCUGCGAAUUCUGCUGU", "note": "[C27G G37A]", "self-cleavage": 0.135},
      {"variant": "GGGGGCCACAGCAGAAGCGUUCACGUGGCGGCCCCUUUCAGAUUCUGGUGAAUCUGCGAAUUCUGCUGU", "note": "[C27G G37U]", "self-cleavage": 0.165},
      {"variant": "GGGGGCCACAGCAGAAGCGUUCACGUUGCGGCCCCUAUCAGAUUCUGGUGAAUCUGCGAAUUCUGCUGU", "note": "[C27U G37A]", "self-cleavage": 0.187},
      {"variant": "GGGGGCCACAGCAGAAGCGUUCACGUUGCGGCCCCUGUCAAAUUCUGGUGAAUCUGCGAAUUCUGCUGU", "note": "[C27U G41A]", "self-cleavage": 0.147},
      {"variant": "GGGGGCCACAGCAGAAGCGUUCACGUGACGGCCCCUGUCAGAUUCUGGUGAAUCUGCGAAUUCUGCUGU", "note": "[C27G G28A]", "self-cleavage": 0.147},
      {"variant": "GGGGGCCACAGCAGAAGCGUUCACGUGGCGGCCCCUGUCAGAUUUUGGUGAAUCUGCGAAUUCUGCUGU", "note": "[C27G C45U]", "self-cleavage": 0.229},
      {"variant": "GGGGGCCACAGCAGAAGCGUUCACGUGGCGGCCCCUGUCAGAUUAUGGUGAAUCUGCGAAUUCUGCUGU", "note": "[C27G C45A]", "self-cleavage": 0.17},
      {"variant": "GGGGGCCACAGCAGAAGCGUUCACGUAGCGGCCCCUGUCAGAUUCUGGUGAAUCUGCGAAUUCUGCGGU", "note": "[C27A U67G]", "self-cleavage": 0.635},
      {"variant": "GGGGGCCACAGCAGAAGCGUUCACGUGGCGGCCCCUGUCAGAAUCUGGUGAAUCUGCGAAUUCUGCUGU", "note": "[C27G U43A]", "self-cleavage": 0.133},
      {"variant": "GGGGGCCACAGCAGAAGCGUUCACGUGGCGGCCCCUGUCAGAGUCUGGUGAAUCUGCGAAUUCUGCUGU", "note": "[C27G U43G]", "self-cleavage": 0.154},
      {"variant": "GGGGGCCACAGCAGAAGCGUUCACGUGGCGGCCCCUGUCAGAUUCUGGUGAAUCUGCGAAUUCUGCUGG", "note": "[C27G U69G]", "self-cleavage": 0.29},
      {"variant": "GGGGGCCACAGCAGAAGCGUUCACGUUGCGGCCCCUGUCAGAUUCUGGUGAAUCUGCGCAUUCUGCUGU", "note": "[C27U A59C]", "self-cleavage": 0.127},
      {"variant": "GGGGGCCACAGCAGAAGCGUUCACGUUGCGGCCCCUGUCAGAUUCUGGUGAAUCUGCGUAUUCUGCUGU", "note": "[C27U A59U]", "self-cleavage": 0.212},
      {"variant": "GGGGGCCACAGCAGAAGCGUUCACGUUGCGGCCCCUGUCAGAUUCUGGUGAAUCUGCGGAUUCUGCUGU", "note": "[C27U A59G]", "self-cleavage": 0.246},
      {"variant": "GGGGGCCACAGCAGAAGCGUUCACGUGGCGGCCCCUGGCAGAUUCUGGUGAAUCUGCGAAUUCUGCUGU", "note": "[C27G U38G]", "self-cleavage": 0.255},
      {"variant": "GGGGGCCACAGCAGAAGCGUUCACGUUACGGCCCCUGUCAGAUUCUGGUGAAUCUGCGAAUUCUGCUGU", "note": "[C27U G28A]", "self-cleavage": 0.126},
      {"variant": "GGGGGCCACAGCAGAAGCGUUCACGUUGCGGCCCCUGUCCGAUUCUGGUGAAUCUGCGAAUUCUGCUGU", "note": "[C27U A40C]", "self-cleavage": 0.198}
    ]}
  ]
}
